This note sets out measurements from CN115490770A (GMAX BIOPHARM HANGZHOU CO LTD, dated 2022).

One assay concerns the target T1, 人CD3 (human, UniProt P07766 23-207).
T1 construct: whole, on cells; Natural CD3 complex on Jurkat T cells (and CIK cells); also called Jurkat细胞表面人CD3分子
As to the kind of experiment: flow cytometry (FACS) on Jurkat cells, anti-human IgG Fc PE secondary. For orientation: Flow cytometry measures light scatter and fluorescence of single cells or particles in a stream.

A further assay deals with T2, 人ETA (内皮素受体A) (human, UniProt P25101 21-427).
T2 construct: whole, on cells; The plasmid's ETA construct is not described further; also called CHO-ETA; CHO-ETA-EGFP
T2 sequence (looked up): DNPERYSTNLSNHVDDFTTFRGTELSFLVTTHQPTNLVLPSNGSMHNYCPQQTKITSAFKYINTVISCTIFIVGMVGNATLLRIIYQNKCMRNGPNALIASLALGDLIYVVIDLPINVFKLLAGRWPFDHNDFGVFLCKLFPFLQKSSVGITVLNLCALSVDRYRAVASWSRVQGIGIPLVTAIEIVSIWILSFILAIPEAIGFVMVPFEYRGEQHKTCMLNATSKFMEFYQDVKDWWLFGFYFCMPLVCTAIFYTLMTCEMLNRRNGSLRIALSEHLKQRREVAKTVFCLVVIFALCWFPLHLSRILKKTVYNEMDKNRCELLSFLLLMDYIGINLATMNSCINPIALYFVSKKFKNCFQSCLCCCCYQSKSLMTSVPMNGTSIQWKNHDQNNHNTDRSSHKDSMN
The experiment in a line: flow cytometry (FACS) on CHO-ETA cells, anti-human IgG Fc PE secondary.

T1 sequence (P07766 23-207): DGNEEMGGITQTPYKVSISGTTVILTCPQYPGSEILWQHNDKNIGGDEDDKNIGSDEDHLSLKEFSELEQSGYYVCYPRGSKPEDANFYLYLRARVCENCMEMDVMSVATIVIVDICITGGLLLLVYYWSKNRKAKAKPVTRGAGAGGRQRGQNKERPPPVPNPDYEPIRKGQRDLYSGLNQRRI

B1: αETA(L5H5,SEQ NO ID:19+SEQ NO ID:20)/αCD3(L3H3,SEQ NO ID:15+SEQ NO ID:16)双特异性抗体 (bispecific antibody)
chain 1: QVTLKESGPTLVKPTQTLTLTCTFSGFSLTTSGLGVAWIRQPPGKALEWLAHIWSDGDTRYYPALKNRLTITKDTSKNQVVLTMTNMDPVDTATYYCAHMKDDSLYFDNWGQGTLVTVSS
chain 2: EIVLTQSPDFQSVTPKEKVTITCRASQNIGTSIHWYQQKPDQSPKLLIKYASKSISGVPSRFSGSGSGTDFTLTINSLEAEDAATYYCQHSYSFPWTFGQGTKVEIK
chain 3: EAVVTQEPSLTVSPGGTVTLTCRSSTGAVTTSNYANWVQQKPGQAPRGLIGGTNKRAPWTPARFSGSLLGGKAALTLSGAQPEDEAEYYCALWYSNLWVFGGGTKLTVL
chain 4: EVQLVESGGGLVQPGGSLRLSCAASGFTFNTYAMNWVRQAPGKGLEWVGRIRSKYNNYATYYADSVKDRFTISRDDSKNTLYLQMNSLRAEDTAVYYCVRHGNFGNSYVSWFAYWGQGTLVTVSS
With B1, the figures for the EC50 in the assay with 人CD3 and with 人ETA (内皮素受体A) were 10.7 nM and 3.51 nM, respectively.

A word on the EC50: it is the concentration giving half of the maximal effect.
